Broadly, the Kd is a measure of binding affinity in units of concentration. A lower Kd goes with tighter binding.

Kd data for one substance are collected here from patent US20200368282A1.

This experiment deals with human TNFR2 (tumor necrosis factor receptor 2) (human) (UniProt P20333). As to the kind of experiment: surface plasmon resonance (Pioneer SensiQ). For orientation: Surface plasmon resonance follows binding to a sensor surface in real time, without labels.
UniProt P20333, sequence (P20333 23-257 S98P/S102P limits assumed): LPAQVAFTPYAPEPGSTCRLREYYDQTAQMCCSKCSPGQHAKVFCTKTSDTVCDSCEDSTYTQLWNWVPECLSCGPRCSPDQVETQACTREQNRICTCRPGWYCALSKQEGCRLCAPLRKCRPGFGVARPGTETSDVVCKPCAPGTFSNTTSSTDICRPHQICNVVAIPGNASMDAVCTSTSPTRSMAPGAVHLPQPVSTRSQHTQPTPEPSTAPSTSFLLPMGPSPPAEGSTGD

With “Clone MAB726 (R&D Systems, Inc.) (antibody)”, the Kd came out at 0.621 nM.
